In the supplement of paper PMC10567573:

B1: APBB1IP (parent)
chain: LPLPPPPPEPLSQVSMWDQRWQDH
B2: SMG5 (parent)
chain: FVSIAQSEQESLLQQAQAQFRMAQ
B3: LOXL2 (parent)
chain: HISSCKLGPQVSLDPMKNVTCENG

Variants of: B1
Assay: protein stability index of a GFP-peptide fusion (GPS, HEK-293T) (PSI 1-6); higher = more stable
Settings: c terminus: a fixed tail appended
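Further: lentivirally expressed fusions sorted by FACS into six bins by GFP to DsRed ratio, PSI derived from sequencing read proportions per bin multiplied by bin number.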

Protein stability index: each site, then its substitutions
P7: K 3.97; E 4.25
P5: W 3.4; M 3.84; K 3.28

Variants of: B2
Assay: as above
Settings: c terminus: a fixed tail appended

Protein stability index: each site, then its substitutions
F1: Q 3.7; W 2.65; H 3.9; K 3.77; D 4.28; S 3.41; C 2.75; N 3.93; E 4.16; Y 2.51; I 2.96; L 3.3; G 4.01; A 4.58; T 4.04; R 3.42; V 3.88; P 3.77; M 2.97
Q9: N 2.08; P 1.63; I 1.67; E 2.25; R 1.85; H 2.2; D 2.15; Y 1.21; S 2.02; V 1.91; F 2.32; G 1.95; A 1.56; C 3.07; L 3.25; W 1.67; T 2.9; K 1.73; M 2.02
L12: H 2.72; F 2.02; G 2.12; K 2.4; A 2.69; C 2.17; I 2.53; E 2.48; D 3.33
S3: D 2.22; F 1.87; P 2.22; G 2.13; L 1.87; W 2.89; T 2.25; R 2.31; N 1.83; Y 1.58; C 1.66; I 1.61; K 2.28; M 1.6; V 1.77; E 2.61; H 1.74; Q 2.62; A 1.99
V2: L 2.99; F 2.22; I 2.59; A 3.24; E 3.69; M 2.9; P 3.8; Q 2.9; T 3.35; K 3.12; W 2.98; R 3.45; C 2.82; D 3.77; N 4.14; H 2.43; S 3.45; G 3.65; Y 2.69
E8: G 1.86; K 2.07; Q 2.44; P 1.62; C 2.04; Y 1.4; D 2.39; T 1.84; N 1.92; L 2.19; R 1.42; F 3.04; A 2.2; H 2.02; V 1.39; S 1.82; I 1.9; M 1.57
S7: D 2.33; N 2.27; Q 2.5; L 1.77; W 3.26; T 2.36; Y 1.57; I 2.56; H 2.77; C 1.63; E 2.85; G 2.61; R 2.79; F 2.22; P 2; A 2.38; K 1.98; M 1.65
I4: T 2.78; W 2.8; H 1.9; L 1.86; K 2.39; Q 3.01; Y 2.12; E 2.91; G 2.42; M 2.61; V 2.29; F 2.2; S 1.87; A 2.38; R 2.06; C 1.83; D 3.09; P 3.08; N 2.49
Q6: F 2.15; I 2.02; C 1.44; M 2.19; G 1.85; R 2.33; H 1.92; E 2.93; Y 2.32; T 1.84; A 1.9; V 1.53; D 2.75; P 2.35; S 2.25; N 1.97; K 2.26; L 1.79
A5: K 2.3; R 2.57; G 1.66; Q 2.11; I 1.78; S 1.76; N 1.86; D 3.41; Y 1.91; E 2.64; C 1.82; V 1.42; T 1.54; F 2.56; H 2.21; M 2.58; L 2.23; P 1.88
E10: F 2.2; V 2.85; C 2.07; H 1.95; L 2.14; S 1.61; R 2.2; W 2.89; M 1.43; T 1.52; A 1.89; D 2.19; I 1.73; Q 2.54; P 1.96; G 1.6; K 1.87; N 2.03; Y 1.89
S11: P 2.6; V 1.59; D 2.46; M 1.97; E 2.56; C 2.56; N 2.17; R 2.37; H 2.04; G 1.2; A 2.4; K 2; Y 2.04; T 2.63; I 1.69; F 1.56; W 1.79; L 1.99; Q 2.23

Variants of: B3
Assay: as above
Settings: c terminus: a fixed tail appended

Protein stability index, by site and new letter:
E22: P 3.47; L 2.58; H 3.18; S 3.5; M 2.9; G 3.17; R 3.5; C 3.22; Q 3.47; D 3.82; Y 2.44; V 3; N 3.35; T 3.23; W 2.09; F 2.46; A 3.51; K 3.89; I 2.92
T20: G 3.87; N 4.13; I 3.84; H 3.85; M 3.64; C 3.37; E 4.16; R 3.88; K 4.26; D 4.4; A 3.99; W 2.31; F 2.48; V 3.83; S 4.08; P 4.26; Y 3.58; L 4.37; Q 4.02
N23: F 2.93; P 3.63; W 2.21; R 3.58; Q 4.08; M 3.26; G 3.85; T 3.77; H 3.61; E 4.63; D 4.38; L 3.1; C 4.01; I 2.9; K 3.98; S 3.91; V 3.53; Y 3.35; A 3.53
C21: K 4.06; R 3.94; S 4.63; T 4.08; I 3.53; E 4.92; G 4.05; W 3.75; Y 3.36; N 4.14; F 3.65; V 4.1; L 3.88; Q 3.86; H 4.03; A 4.41; D 4.79; M 3.61; P 4.17
V19: W 2.99; K 4.13; S 4.38; A 4.32; E 4.44; Y 3.76; P 4.2; L 3.77; M 3.55; D 4.67; C 3.86; H 3.89; G 4.15; R 4.26; Q 4.08; T 3.71; I 3.59; N 4.57; F 2.95
N18: Y 3.08
G24: P 3.79; Y 3.29; A 3.65; W 2.93; K 3.82; C 3.37; D 4.01; I 3.39; Q 4; V 3.67; E 4.47; N 4.12; M 3.52; T 4.05; S 4.25; F 3.34; L 3.45; H 3.94; R 3.58
